Data from patent publication US20080113383A1, “Hif Prolyl Hydroxylase Activity Assay” (Fibro Gen, Inc., priority 2004, published 2008).
Several values for one entry are separate records, joined by “and”; a condition that tells them apart may be missing. Equal entries are not always repeated. Where no end group is shown, it is not given here. [ ]: non-standard residue; d: D form. ΔPro = O=C(O)[C@@H]1C=CCN1; Aze = O=C(O)[C@@H]1CCN1

What was measured:
Assay type in all cases: biochemical
EGLN1 [1] = target: T1, EGLN1 (Homo sapiens, UniProt Q9GZT9); assay: Standard reaction (I): EGLN enzyme activity with hydroxylatable peptide substrate, 14CO2 release from 2-oxo[1-14C]glutaric acid; conditions: for specificity of peptide for EGLN1, EGLN2 and EGLN3 compared: standard reaction (I) peptides, from Table 1 and FIGS. 3, 4
T1 sequence (Q9GZT9 whole entry): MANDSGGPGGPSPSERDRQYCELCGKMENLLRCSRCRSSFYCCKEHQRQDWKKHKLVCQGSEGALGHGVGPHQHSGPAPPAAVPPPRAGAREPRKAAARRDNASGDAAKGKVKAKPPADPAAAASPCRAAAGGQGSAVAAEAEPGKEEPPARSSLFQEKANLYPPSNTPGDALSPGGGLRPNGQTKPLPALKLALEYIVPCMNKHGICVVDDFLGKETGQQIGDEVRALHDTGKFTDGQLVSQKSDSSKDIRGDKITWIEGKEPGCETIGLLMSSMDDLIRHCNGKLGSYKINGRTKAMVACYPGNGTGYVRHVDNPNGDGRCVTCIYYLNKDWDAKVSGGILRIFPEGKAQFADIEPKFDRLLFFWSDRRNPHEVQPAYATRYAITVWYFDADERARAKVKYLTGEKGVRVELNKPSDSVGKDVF
From the text: (§1) Enzyme activity can be measured by monitoring the consumption of one or more reaction substrates, or accumulation of one or more reaction products. For example, enzyme activity in either the standard reaction (I) or the modified reaction (II) can be measured using a modified version of a method described by Kivirikko and Myllyla (1982, Methods Enzymol 82:245-304), which is based on the decarboxylation of 2-oxo[1-^14C]glutaric acid. In this method, radioactive ^14CO2 produced during the reaction is captured on base-impregnated filter papers and the captured radioactivity determined by liquid scintillation counting. In a particular embodiment, enzyme activity in standard reaction (I) was measured as described in Example 2 (infra).
(§2) In DLD19, methionine (M) residues were changed to alanine (A) residues due to potential oxidation of methionine during the assay reaction. Peptides used in the assay may additionally contain N-terminal and/or C-terminal blocking groups, e.g., N-terminal acetyl groups, C-terminal amide groups, etc. Enzyme activity in the presence of substrate peptides is provided supra as percent enzyme activity relative to enzyme activity in the presence of control peptide DTD20.
(§3) In all experiments, percent enzyme activity, e.g., as measured by substrate turnover, was less than 30% to insure all data obtained were in the linear range. Enzyme activity in standard reaction (I) was measured in a reaction volume of 1 mL containing EGLN enzyme preparation (10-400 μL), 0.05 μmole hydroxylatable peptide substrate, 0.1 μmole of 2-oxo[1-^14C]glutaric acid (160,000 dpm), 1 μmole of ascorbic acid, 60 μg of catalase and 50 μmole of HEPES buffer adjusted to pH 7.4 at 25° C. Optionally, 0.04 μmole FeSO4 was also be added to the reaction mix. Reactions were carried out at 37° C. for 20 minutes. In various reactions, ascorbate was replaced by 0.1 to 15 mM potassium ferrocyanide. Results are provided in Table 1 (supra) and FIGS. 3 and 4.

EGLN2 = EGLN2 (Homo sapiens, UniProt Q96KS0); assay: as above; conditions: Table 1; enzyme activity relative to control peptide DTD20; 37° C., 20 minutes, pH 7.4
EGLN2, sequence (Q96KS0 whole entry): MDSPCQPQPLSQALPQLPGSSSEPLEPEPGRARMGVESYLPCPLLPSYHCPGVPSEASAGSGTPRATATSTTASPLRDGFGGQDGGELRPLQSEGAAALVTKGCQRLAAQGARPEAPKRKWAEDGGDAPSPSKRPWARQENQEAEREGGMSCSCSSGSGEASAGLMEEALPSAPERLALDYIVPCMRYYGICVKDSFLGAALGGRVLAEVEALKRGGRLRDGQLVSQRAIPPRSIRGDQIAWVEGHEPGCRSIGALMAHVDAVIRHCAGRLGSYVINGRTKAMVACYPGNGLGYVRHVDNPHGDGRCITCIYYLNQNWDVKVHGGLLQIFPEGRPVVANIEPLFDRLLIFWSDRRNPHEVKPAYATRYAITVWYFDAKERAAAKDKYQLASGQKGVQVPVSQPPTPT
From the text: as §1, §2, §3

EGLN3 = EGLN3 (Homo sapiens, UniProt Q9H6Z9); assay: as above
EGLN3, sequence (Q9H6Z9 whole entry): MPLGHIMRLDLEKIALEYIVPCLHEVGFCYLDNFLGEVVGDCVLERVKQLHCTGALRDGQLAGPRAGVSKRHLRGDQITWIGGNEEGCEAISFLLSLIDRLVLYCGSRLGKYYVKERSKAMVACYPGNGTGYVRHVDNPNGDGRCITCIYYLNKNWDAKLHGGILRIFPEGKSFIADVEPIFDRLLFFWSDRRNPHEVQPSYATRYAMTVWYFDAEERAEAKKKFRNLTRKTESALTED
From the text: as §1, §2, §3

EGLN1 [2] = target: T1, EGLN1; assay: Modified reaction (II): EGLN enzyme activity with non-hydroxylatable proline-analog peptide and reducing agent; conditions: modified reaction (II) peptides, from Tables 3, 4 and FIGS. 3, 4
From the text: The peptides shown in Table 3, which retain measurable activity in the present assay, are specifically contemplated for use in assays disclosed herein. These peptides are used in a reaction additionally requiring co-substrate 2-oxoglutarate and a reducing agent, e.g., ascorbate; an EGLN enzyme, and oxygen, as described below. The reaction may also include Fe^2+. The reaction proceeds according to the modified reaction (II), in which 2-oxoglutarate is converted to succinate and carbon dioxide, and the reducing agent is subsequently oxidized, e.g., ascorbate is oxidized to dehydroascorbate. […]
In still other embodiments, enzyme activity within the modified reaction (II) may be measured by disappearance of the reduced form of the reducing agent or appearance of the oxidized form of the agent. […] For example, when ascorbate is used in modified reaction (II), disappearance of ascorbate and/or appearance of dehydroascorbate may be measured, e.g., using HPLC. In particular embodiments, ascorbate may be added to modified reaction (II) in limiting quantity, and ascorbate is regenerated during the reaction with concomitant oxidation of NADH to NAD^+ using a modification of the method described by Diliberto and Allen (1981, J Biol Chem 256:3385-3393). […] HIF-PH activity is measured indirectly by consumption of NADH, which produces a reduction in absorbance at a wavelength of 340 nm. […]

[3] = Table 1, enzyme activity relative to control peptide DTD20, 37° C., 20 minutes, pH 7.4

| hydroxylation of peptide by EGLN1 (EGLN1 [1]) | hydroxylation of peptide by EGLN3 (EGLN3) | Substance | specificity of peptide for EGLN1, EGLN2 and EGLN3 compared (EGLN1 [1]) | also measured |
| --- | --- | --- | --- | --- |
|  |  | 45 (DTDLDTEALAPYIPADDDFQ) [compound 45] |  | Activity (%) EGLN1 (EGLN1 [1]; [3]): 25.67% and 23.36%; Activity (%) EGLN2 (EGLN2): 20.49% and 18.04%; Activity (%) EGLN3 (EGLN3; [3]): 64.55% and 60.23% |
|  |  | DTDLDFEALApYIPADDDFQ (DTDLDFEALAPYIPADDDFQ; not fully specified; printed as DTDLDFEALApYIPADDDFQ) [SEQ ID NO 19] | higher specificity for EGLN3 than for EGLN1 and EGLN2 |  |
|  |  | DTDLDIEALApYIPADDDFQ (DTDLDIEALAPYIPADDDFQ; not fully specified; printed as DTDLDIEALApYIPADDDFQ) [SEQ ID NO 24] | higher specificity for EGLN3 than for EGLN1 and EGLN2 |  |
|  |  | DTDLDLEALA4YIPADDDFQ (DTDLDLEALA[ΔPro]YIPADDDFQ) [SEQ ID NO 62, 4 = 3,4-dehydroproline in place of the hydroxylated proline] |  | specificity of proline-analog peptide for EGLN1, EGLN2 and EGLN3 compared (EGLN1 [2]): higher specificity for EGLN1 and EGLN2 than for EGLN3 |
|  |  | DTDLDLEALA8YIPADDDFQ (DTDLDLEALA[Aze]YIPADDDFQ) [SEQ ID NO 63, 8 = L-azetidine-2-carboxylate in place of the hydroxylated proline] |  | specificity of proline-analog peptide for EGLN1, EGLN2 and EGLN3 compared (EGLN1 [2]): higher specificity for EGLN3 than for EGLN1 and EGLN2 |
|  |  | DTDLDLEARApYIPADDDFQ (DTDLDLEARAPYIPADDDFQ; not fully specified; printed as DTDLDLEARApYIPADDDFQ) [SEQ ID NO 15] | higher specificity for EGLN1 and EGLN2 than for EGLN3 |  |
|  |  | DTDLDMEALApYIPADDDFQ (DTDLDMEALAPYIPADDDFQ; not fully specified (residue 11); printed as DTDLDMEALApYIPADDDFQ) [SEQ ID NO 13] | higher specificity for EGLN3 than for EGLN1 and EGLN2 |  |
| readily hydroxylated | readily hydroxylated | DTDLDWEAVSpYIPADDDFQ (DTDLDWEAVSPYIPADDDFQ; not fully specified (residue 11); printed as DTDLDWEAVSpYIPADDDFQ) [SEQ ID NO 91] |  |  |
| readily hydroxylated | readily hydroxylated | DTDLDWEMVApYIPADDDFQ (DTDLDWEMVAPYIPADDDFQ; not fully specified (residue 11); printed as DTDLDWEMVApYIPADDDFQ) [SEQ ID NO 92] |  |  |
| readily hydroxylated | readily hydroxylated | DTDLDWEMVSpYIPADDDFQ (DTDLDWEMVSPYIPADDDFQ; not fully specified (residue 11); printed as DTDLDWEMVSpYIPADDDFQ) [SEQ ID NO 90] |  |  |
| readily hydroxylated | readily hydroxylated | DTDLDYEMIApYIPADDDFQ (DTDLDYEMIAPYIPADDDFQ; not fully specified (residue 11); printed as DTDLDYEMIApYIPADDDFQ) [SEQ ID NO 89] |  |  |
